experiment: soluble on expression in E. coli; label from the status in PepcDB or PDB records

Soluble on expression in E. coli, soluble:
IFNGRPAQKGTTPWIAMLSHLNGQPFCGGSLLGSSWIVTAAHCLHQSLDPKDPTLRDSDLLSPSDFKIILGKHWRLRSDENEQHLGVKHTTLHPQYDPNTFENDVALVELLESPVLNAFVMPICLPEGPQQEGAMVIVSGWGKQFLQRFPETLMEIEIPIVDHSTCQKAYAPLKKKVTRDMICAGEKEGGKDACAGDSGGPMVTLNRERGQWYLVGTVSWGDDCGKKDRYGVYSYIHHNKDWIQRVTGVRN, INQPVIETERFDLRPLRKSDMGLIEHYARDERVARMTTSIPHPLPPGMAEGFVARAMSEERTEDVWAMDATRDGGPELMGLISLERMDRNQSEVGYWVAPVFWNTGIASMAVEALVNANPLGNATMFASVFQDNPASARVLTHCGFQYLGDAESYSVARDAAVPTWTYSRKL, KDYDAYLSYTKVDPDQWNQETGEEERFALEILPDMLEKHYGYKLFIPDRDLIPTGTYIEDVARCVDQSKRLIIVMTPNYVVRRGWSIFELETRLRNMLVTGEIKVILIECSELRGIMNYQEVEALKHTIKLLTVIKWHGPKCNKLNSKFWKRLQYEMPF

Soluble on expression in E. coli, not soluble:
IDKIENYEQSTSQLREEIKTLYNEVIDIGKKLSQERRRVARELRDHIVSEIQNLQMKDANLEISFKPLDEPTIEGIEFVEFLISPNRGEPLKSLNKIASGGELSRIMLALKSIFVKSRGQTAILFDEVDSGVSGQAAQKMAEKMRDIAQYIQVICISHLPQVASMSDHHLLISKASNADRTTTQVKELKDENKIDEIARMISGASVTELTRENAKEMIKQNHNI, IDRKVLSQLRNRFLSLNDGRYARALEGMSTRQQSVLTLLPLFFHVNHPLLPGYVSGSTPAGVSHYEPDTLALAEAQRLTRSFSYKARHGNPPQPIHGLFLMGSLGTLAQADQSDMDVWVCHDSELDLEAIAELRKKCQALEAWAATMGAEAHFFLIDPQRFKSGERDSQLSSDDCGTTQHYLLLDEFYRTAIWLAGRTPMWWMVPVYEEQNYEDYTYTLLSKRFIRASEVLDLGPMSHIPATEFIGAGLWQLFKGIGSPYKSVLKLLLIEVYSSEHPRVQCLSLRFKQAVFANQLDLDELDPYVVVYRRIEEHLQARNEPERLELVRRSLYLKVNKKLTGSTRQRNIGWQRLLLARLTSEWGWDERQLTLLDSRSQWKVRQVASERRALVNELNYSYRFQTRFARAQSTADTLDARDLTILGRRLYAAYERKAGKVEFINPGIAPDLAEDTLTLVHSPDKREPGKHQWALYNGNLGIHEWANFSPIKRSRELLELLAWCHRNNVIDTTTRVALHPGTSDLSEFELFNLLGALQQSIELPLPEVSDDELLKPSAPSEILLLINVGVDPLRHHRDLNILMTTERTDSLSYAGVRENLVLTLDQITLNTWNETLVSRYDGPHALLDCMSELLGSLPTSGKQPQIRVRCFCHNRASAIAQRVEELISTAQLLLARQLNHRYLIQVQQQYHVLEIKPGQVGHVVVNSLPGLFKYLGEELPRYSPLHLDPQALDGHDLALILPLGQPECIQVFYRINEPDADLYVLDEHNSLWHQRVPYHDEQSLLTPLQRFFHSLVYRRGASLPLDD, IGDLSYSVSGNIATNNNEIVTLAGSDNMIQNGGDVVRYILKEGEAIGSYYGLETDGLYTQEEIDAGHYYKYGRKPNAGDIKYVPQRENVEWGDDITDDDRTIIGKDVPDFTYGININLQWKNFELSAFGQGVSGTSVAFESEQVFAFMLNSNPRKYHLSRWNEDNPNPNAACPRLYGGNYYDEYNKHFSDYQLFDADYFRIKTISLGYMVPKDAVTRWGLSSLKFFLTGENLFTFRADKDMKDFDPESSTGRGISAFGAKSVAFGVNVSF, IGIVNDMPLAVEALRRALAFEPQHQIVWVASNGAEAVTQCAADTPDVVLMDLLMPVMDGVEATRRIMAESPCAIVIVTVDIEQNVHRVFEAMGYGALDAVNTPALGIGNPQTAAAPLLRKIQNVGWLIGQRDNRGKVQVVPPKAGGARQRLVAIGASAGGPASLAVLLKQLPASFNAAVVLVQHVDEVFAAGMAEWLASESKLPVRLARDGEPPIPGQILLAGTNNHIRLLRNGSLVYTAEPRSFVYRPSIDVFFESVANYWRGDAVGVLLTGMGRDGAQGLKQMRERGFLTIAQDQASCAVYGMPKAAAAIDAAVQILSLEKIA, IKDFNYGVKFVLSDDQRKVTRYPNEELNRNQWYAGRMDGLVWGYETVGIAKTDAEMEAHLASLPNGGQSQLGSKWAAGDIMYKDLNGDGKISSGDGTLNDLGDLKVVANTQLRFKYGLTLDASWKGFDFSAFFQGVGKRDVVVGGPYFWGANGQGMWQAAAFKDHMDYFRPEDTESVFGPNVDAYYPRVIFGGGSSEGGKNTLTQSRYVQNGAYIRLKNLQLGYTLPSTITKKFAVNSLRVYVSGDNLWTGTKMRVFDPEVLGSTGDAGKAYPLARVWSVGLNVNF, IKDFNYRIGFNLYDSQSEITKFNNETNLLGTYRKGQKIGEIWGYVTDRFYREDDFNADGTLKEGIPIPKGVGKVYPGDILYKNFDDDASTIWSGKGTADDPGDQRIIGNSTPRFHYGINAGLSWKGFDLSVFLRGVGKRDFWRTDQIAWPTGTWGSLFKETLDFWTPEHTDAYFPRVYANNGVNTASNRWKQTKYLANAAYLKLQNITLSYTLPKTWAKQICFDEVKVFFSGENLHTWDHLPEGLESDMLSKGAWEYPFMKKFSLGFNVTF, IKKEPEKPIDREKTCPLLLRVFTTNNGRHHRMDEFSRGNVPSSELQIYTWMDATLKELTSLVKEVYPEARKKGTHFNFAIVFTDVKRPGYRVKEIGSTMSGRKGTDDSMTLQSQKFQIGDYLDIAITPPNRAPPTSGRMRPY, IKPTYQGHVTVIIGRNDSKSSTNEQYNDVMMSQNLTKTYAQIAESRSVASKTVSKLSNGTTIDQVSKVVSVTPETGTQIIDITANAKSPEEAADLANDFSDSFVAVSKEVYTAGDARIIDRATAPKSPIKPKK, INALVIGDLMLDQYLWGKAERISPEAPVQVVDVTREEIRIGGAGNVANNLVALGCRVSVASVVGGDENGTILLHAFSGKGIDVTGIVEDPSRTTSRKTRVLASNQQIVRIDRESRDEIGPDNERRIVDYLNAHGDRFNVILVSDYLKGVLTPTLLAEVIAFARKREIPVVVDPKGSDYAKYRGATVLTPNRKEAEAASGIAIRDDESLCRAGERLLETADLTALVITRSEEGMSLFLRGGQVVHIPTYAREVFDVTGAGDTVLAVLGMALAGGVGFADGARLANVAAGVAVGKVGTSTVSPAEIVGSLG, INTVNLINQMKTLAAQAEGIKPDSGLNHASFSSVFQQALNQVNELSQTADSLKTRFEIGDPNVSLGEVMIASQKSNLGFEATLRVRNKLVQAYQDIMNMPV, ISVDTLNTKELIEAINLGADMILSVDAGNLDELIPYLKDSETAVVVLPTNYKTNYVPETIEGKIKSLEENIKKLIDAGIEKIVADPILEPINNAGCSFIESVIACREFKKRNKLPLFFGVGNVTELFDADSNGVNALLAAIGAEIGANILFTPEASAKCKFSIKELKIASKMMFLAKKRNSLPKDIGYNLINYKDKRFEEEITFNSYNIPIIKAEEDERQILDEGSFKIEIDRKNKEIVAIYFNKRREPVLIIRGKKPKEIYETAIRLNLIKKLDHASYFGRELAKAEIALRIGKKYNQDFDLF, KAAPAEPATGPFNVSATSPVTGQNYQMSCTAHDHVMRCSGGNNAIVLLTPNPTGVVEEKTYEYALEGTVVLKNTAEVLEGLKPPNNDNPNNEYILLWFDNPMDVAGKHAGNRDQLSTKNVRYLSLGKKETTQYGPLPDTTGPWRQYVGKRIRLHVNSDNMRYPSDTGMPLGALRLEEAPDIRIEEL, KARLIYNPTSGQEIMKKNVAEVLDILEGFGYETSAFQTTPTKNSARDEATRAAQAGFDLIVAAGGDGTINEVVNGIAPLKRRPKMAIIPTGTTNDFARALKIPRGNPIEATKLIGKNQIVKMDIGQAQED, KDEIGVIGIDDAPFNKFDKEALIVGTYMRGNKLVDEISFKKIEKDGFDSTEKILKIVKDKHFTKINAIFLDGVTFGGFNIADIVKIYNETKIPVIAVMEKEPDLLKMKSALKKYFFDFPEKIEMLESFPKPEPFENIFIQCIGISFEDACKLIKKTRLRSKIPECLRISHLVGRGFLNME

From the DeepSol protein solubility set
